# From US20210063395
# Like-named read-outs stand apart in the source and are kept apart here.
# How the values were obtained:
# gliadin [1] = details: Gli4-FAM-PEG-rGO/Q-glia fluorescence at 520 nm; differs from Table 1 value
# [2] = tested on: Q-gliadin (gliadin-BHQ-1 quencher conjugate); details: Gli4-FAM-PEG-rGO fluorescence at 520 nm; SE 0.02
# [3] = tested on: lactose protein (as named; milk protein presumably); details: Gli4-FAM-PEG-rGO/Q-glia fluorescence at 520 nm; specificity control
# gliadin [4] = details: Gli4-FAM-PEG-rGO/Q-glia fluorescence recovery at 520 nm, 100 nM aptamer; SE 0.1912; p66 gives about 0.11 ppm
sequence,measurement,setting,value
CCAGTCTCCCGTTTACCGCGCCTACACATGTCTGAATGCC [Gli4-FAM],Kd,gliadin [1],0.11 ppm
same,Kd,[2],148 ppm
same,Kd,[3],13.2 ppm
same,Kd,gliadin [4],0.76 ppm
